The values that follow come from patent publication US20200079850A1 (SUTRO BIOPHARMA, published 2020).

The IC50 is the concentration that inhibits the measured activity by half. What is called Kd is the free concentration of one partner at which half of the binding sites on the other are occupied at equilibrium, for simple one-to-one binding. A low value points to tighter binding.

Assay [1] concerns the target T1, rabbit Fc-tagged recombinant human PD1 (rhPD1-rabbit Fc) (human, UniProt Q15116 25-167, limits assumed).
T1 construct: also called recombinant human PD-1 protein
Put plainly: flow cytometry competition: inhibition of rhPD1-rabbit Fc binding to human PD-L2 on CHO cells; PE anti-rabbit IgG detection. The procedure:
CHO-k cells stably expressing human PD-L1 or PD-L2 were used to measure the ability of anti-PD1/LAG3 bi-specific antibody constructs to block rabbit Fc-tagged recombinant human PD1 (rhPD1-rabbit Fc) protein binding. Cells were seeded at 100,000 cells/well in 100 μL of FACS buffer in 96-well polypropylene plates. The cells were centrifuged and resuspended with test antibodies (2× concentration) diluted in FACS buffer, immediately followed by equal volume of rhPD1-rabbit Fc (added at 2× concentration; 0.2 ng/mL and 0.1 ng/mL final for PD-L1 and PD-L2, respectively). Cells were incubated on ice for 1 hour and washed twice. rhPD1-rabbit Fc binding on CHO-human PD-L1 or PD-L2 cells was detected with R-Phycoerythrin AffiniPure F(ab′)₂ Fragment Goat Anti-Rabbit IgG (H+L) (1:200 dilution, Jackson ImmunoResearch) for 30 minutes. The cells were washed twice with FACS buffer, fixed in 4% paraformaldehyde in PBS for 20 mins on ice in the dark, washed twice with FACS buffer, and analyzed using the BD LSR II Flow Cytometer. Data were analyzed using FlowJo (FlowJo, LLC; Ashland, Oreg.) to determine mean fluorescence intensities. Prism 6 software was used to create one site, specific binding with Hill slope curves (Log transform) to determine IC₅₀ values.
Background: In flow cytometry, cells or beads pass a laser one at a time.

The target in assay [2] is T2, recombinant human LAG3 protein (rhLAG3), HIS-tagged (ACRO) or biotinylated (R&D Cat #2319-C3) (human, UniProt P18627 23-450, biotinylated in part of the assays).
T2 sequence: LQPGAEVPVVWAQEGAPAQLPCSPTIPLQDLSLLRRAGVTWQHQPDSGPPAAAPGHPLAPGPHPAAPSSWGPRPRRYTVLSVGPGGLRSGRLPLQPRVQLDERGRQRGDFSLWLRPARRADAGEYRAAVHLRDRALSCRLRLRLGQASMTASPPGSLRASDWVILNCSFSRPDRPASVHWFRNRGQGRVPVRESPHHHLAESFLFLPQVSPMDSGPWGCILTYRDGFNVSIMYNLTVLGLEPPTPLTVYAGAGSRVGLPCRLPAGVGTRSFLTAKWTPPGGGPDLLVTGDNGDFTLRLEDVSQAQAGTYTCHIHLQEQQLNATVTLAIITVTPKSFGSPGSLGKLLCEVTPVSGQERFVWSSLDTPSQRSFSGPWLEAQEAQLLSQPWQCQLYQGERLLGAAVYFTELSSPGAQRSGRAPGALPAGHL
Put plainly: flow cytometry competition: inhibition of biotinylated rhLAG3 binding to MHC class II on Daudi cells; PE-streptavidin detection. The procedure: Daudi cells expressing Major Histocompatibility Class II (MHCII) molecules, the natural ligand for LAG3, were used to measure the ability of anti-PD1/LAG3 bi-specific antibody constructs to block biotinylated (ThermoFisher, Cat #21329) recombinant human LAG3 protein (rhLAG3, R&D Cat #2319-C3) binding. Cells were seeded at 100,000 cells/well in 100 μL of FACS buffer in 96-well polypropylene plates. The cells were centrifuged and resuspended with test antibodies (2× concentration) diluted in FACS buffer, immediately followed by equal volume of biotinylated rhLAG3 (added at 2× concentration; 7.5 μg/mL final). Cells were incubated on ice for 1 hour and washed twice. Biotinylated rhLAG3 binding was detected with 2 μg/mL R-Phycoerythrin-conjugated Streptavidin (eBioscience) for 30 minutes. Cells were washed twice with FACS buffer, fixed in 4% paraformaldehyde in PBS for 20 mins on ice in the dark, washed twice with FACS buffer, and analyzed using the BD LSR II Flow Cytometer. Data were analyzed using FlowJo (FlowJo, LLC; Ashland, Oreg.) to determine mean fluorescence intensities. Prism 6 software was used to create one site, specific binding with Hill slope curves (Log transform) to determine IC₅₀ values. […]

Assay [3] concerns the target T3, human PD-1 expressed on the surface of CHO cells (human, UniProt Q15116 25-288).
T3 construct: I took it as human PD-1; also called CHO-PD1
Briefly: flow cytometry cell binding on CHO cells expressing human PD-1; PE anti-human IgG detection; one site-specific binding with Hill slope fit. The method, then: CHO-k cells stably expressing PD-1 or LAG3 (human or cynomolgus) on the cell surface were used to assess binding affinity of anti-PD-1/LAG3 bispecific antibody constructs. Cells were seeded at 100,000 cells/well in 100 μL of FACS buffer (1×PBS, 0.5% BSA, 0.1% sodium azide) in 96-well polypropylene plates. The cells were centrifuged at 1.5K rpm and resuspended with test antibodies diluted in FACS buffer and incubated on ice for 1 hour. The cells were washed twice with FACS buffer and incubated on ice for 30 mins with R-Phycoerythrin-AffiniPure F(ab′)2 Fragment Goat Anti-Human IgG (H+L) secondary detection antibody (1:200 dilution, Jackson ImmunoResearch Laboratories, West Grove, Pa.). The cells were washed twice with FACS buffer, fixed in 4% paraformaldehyde in PBS (Santa Cruz Biotechnology; Dallas, Tex.) for 20 mins on ice in the dark, washed twice with FACS buffer, and analyzed using the BD LSR II Flow Cytometer (BD Biosciences; San Jose, Calif.). Data were analyzed using FlowJo (FlowJo, LLC; Ashland, Oreg.) to determine mean fluorescence intensities. Binding constants were calculated using the statistical software, GraphPad Prism (GraphPad Software; La Jolla, Calif.) using the nonlinear regression equation, one site—specific binding with Hill slope. The secondary antibody by itself was used as a control.

T3 sequence (Q15116 25-288 limits assumed): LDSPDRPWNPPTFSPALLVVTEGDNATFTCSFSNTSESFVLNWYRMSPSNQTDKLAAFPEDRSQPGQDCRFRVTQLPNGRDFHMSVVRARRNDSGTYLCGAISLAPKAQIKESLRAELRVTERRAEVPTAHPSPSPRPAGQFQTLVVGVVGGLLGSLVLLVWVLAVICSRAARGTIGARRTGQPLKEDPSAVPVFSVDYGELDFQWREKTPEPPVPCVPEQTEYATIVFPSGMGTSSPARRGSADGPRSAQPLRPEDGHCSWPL
T1 sequence (Q15116 25-167 limits assumed): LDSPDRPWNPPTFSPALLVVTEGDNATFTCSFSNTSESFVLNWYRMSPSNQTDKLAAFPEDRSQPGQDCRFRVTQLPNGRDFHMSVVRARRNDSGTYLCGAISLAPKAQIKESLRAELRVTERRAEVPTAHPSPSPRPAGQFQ

B1: PD-1/LAG3 Bi-specific Construct C: aPD1 1353-G10 Vk1-39LC scFvFc zwB V262E; aLAG3 1449-G09.2 Fab zwA V262E (bispecific antibody, human IgG1, kappa)
scFv: EVQLVQSGAEVKKPGASVKVSCKASGYRFPHYGISWVRQAPGQGLEWMGWISAYNGNTNYAQKLQGRVTMTTDTSTNTAYMELRSLRSDDTAVYYCARDVDYGTGSGYWGQGTLVTVSSGGGGSGGGGSGGGGSDIQLTQSPSSLSASVGDRVTITCSGDALPKQYAYWYQQKPGKAPKLLIYKDTERPSGVPSRFSGSSSGTKVTLTISSLQPEDFATYYCQSADNSITYRVFGGGTKVEIKAAGSDQEPKSSDKTHTCPPCPAPELLGGPSVFLFPPKPKDTLMISRTPEVTCEVVDVSHEDPEVKFNWYVDGVEVHNAKTKPREEQYNSTYRVVSVLTVLHQDWLNGKEYKCKVSNKALPAPIEKTISKAKGQPREPQVYVLPPSREEMTKNQVSLLCLVKGFYPSDIAVEWESNGQPENNYLTWPPVLDSDGSFFLYSKLTVDKSRWQQGNVFSCSVMHEALHNHYTQKSLSLSPGK
heavy: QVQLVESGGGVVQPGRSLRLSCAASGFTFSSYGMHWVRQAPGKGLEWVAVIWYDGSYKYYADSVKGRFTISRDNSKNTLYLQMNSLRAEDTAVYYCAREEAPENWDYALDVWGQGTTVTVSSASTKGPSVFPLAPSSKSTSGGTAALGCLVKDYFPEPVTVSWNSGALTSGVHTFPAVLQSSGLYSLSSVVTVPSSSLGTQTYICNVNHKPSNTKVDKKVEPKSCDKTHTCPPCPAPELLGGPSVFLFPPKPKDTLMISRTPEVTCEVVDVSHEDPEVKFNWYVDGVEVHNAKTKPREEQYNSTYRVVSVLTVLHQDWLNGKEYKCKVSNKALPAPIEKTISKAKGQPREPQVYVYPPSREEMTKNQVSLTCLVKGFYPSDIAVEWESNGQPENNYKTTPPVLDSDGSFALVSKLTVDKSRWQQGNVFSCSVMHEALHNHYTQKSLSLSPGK
light: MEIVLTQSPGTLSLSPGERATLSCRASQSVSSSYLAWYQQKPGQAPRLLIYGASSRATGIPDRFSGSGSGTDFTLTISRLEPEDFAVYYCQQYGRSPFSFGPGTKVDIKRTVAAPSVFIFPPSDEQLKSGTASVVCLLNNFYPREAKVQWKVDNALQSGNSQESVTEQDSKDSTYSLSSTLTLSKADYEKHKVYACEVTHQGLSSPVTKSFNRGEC
notes: The N-terminal Met is not included
Regarding B1, the IC50 in assay [1] came to 1.5 nM; in assay [2] it was 24 nM. This molecule registered a Bmax in assay [3] of 3660 MFI. The same molecule came in with a Kd in assay [3] of 1.5 nM.

B2: PD-1/LAG3 Bi-specific Construct B: aPD1 1353-G10 scFvFc zwB R28T/P30D/H31S V262E; aLAG3 1449-G09.2 Fab zwA V262E (bispecific antibody, human IgG1, kappa)
scFv: EVQLVQSGAEVKKPGASVKVSCKASGYTFDSYGISWVRQAPGQGLEWMGWISAYNGNTNYAQKLQGRVTMTTDTSTNTAYMELRSLRSDDTAVYYCARDVDYGTGSGYWGQGTLVTVSSGGGGSGGGGSGGGGSSYELTQPPSVSVSPGQTARITCSGDALPKQYAYWYQQKPGQAPVMVIYKDTERPSGIPERFSGSSSGTKVTLTISGVQAEDEADYYCQSADNSITYRVFGGGTKVTVLAAGSDQEPKSSDKTHTCPPCPAPELLGGPSVFLFPPKPKDTLMISRTPEVTCEVVDVSHEDPEVKFNWYVDGVEVHNAKTKPREEQYNSTYRVVSVLTVLHQDWLNGKEYKCKVSNKALPAPIEKTISKAKGQPREPQVYVLPPSREEMTKNQVSLLCLVKGFYPSDIAVEWESNGQPENNYLTWPPVLDSDGSFFLYSKLTVDKSRWQQGNVFSCSVMHEALHNHYTQKSLSLSPGK
heavy: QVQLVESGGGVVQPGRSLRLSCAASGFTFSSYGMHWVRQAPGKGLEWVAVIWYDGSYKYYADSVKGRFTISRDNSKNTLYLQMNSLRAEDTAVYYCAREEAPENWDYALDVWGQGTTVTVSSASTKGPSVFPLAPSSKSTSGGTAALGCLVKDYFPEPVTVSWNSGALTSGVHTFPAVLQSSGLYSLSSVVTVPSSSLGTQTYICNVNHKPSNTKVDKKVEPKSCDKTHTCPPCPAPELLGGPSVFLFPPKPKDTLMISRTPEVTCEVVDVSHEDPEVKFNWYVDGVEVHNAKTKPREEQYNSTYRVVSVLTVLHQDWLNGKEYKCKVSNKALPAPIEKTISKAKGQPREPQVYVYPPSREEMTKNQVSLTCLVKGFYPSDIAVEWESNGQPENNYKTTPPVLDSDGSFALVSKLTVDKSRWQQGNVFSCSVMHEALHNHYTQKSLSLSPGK
light: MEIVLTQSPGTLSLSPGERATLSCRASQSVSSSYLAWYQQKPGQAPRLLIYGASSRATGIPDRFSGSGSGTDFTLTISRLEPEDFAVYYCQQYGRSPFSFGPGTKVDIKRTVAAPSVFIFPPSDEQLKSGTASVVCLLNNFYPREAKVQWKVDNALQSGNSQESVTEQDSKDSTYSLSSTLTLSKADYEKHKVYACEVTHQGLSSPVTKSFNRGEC
notes: as for B1
As to B2, in assay [1], the IC50 amounted to 3.3 nM. In addition, the IC50 in assay [2] came to 24 nM. In addition, in assay [3], the Bmax was found to be 1970 MFI and the Kd was 4.3 nM.
